How the values were obtained:
C1q (human) [1] = biological target: C1q (human) (UniProt P02745); assay: cell-based or functional assay
CD20 antigen = CD20 antigen (UniProt P11836); assay: flow cytometry on WIL2-S cells expressing CD20; EC50 as percentage of C2B8 reference; set-up: unit not given beside the values
C1q (human) [2] = biological target: C1q (human) (UniProt P02745); assay: C1q binding ELISA, antibody coated on plate up to 100 ug/ml, 2 ug/ml C1q
C1q (human) [3] = biological target: C1q (human) (UniProt P02745); assay: C1q binding ELISA, antibody coated on plate, 2 ug/ml C1q, anti-C1q-HRP detection

Sequence of CD20 antigen (P11836 whole entry): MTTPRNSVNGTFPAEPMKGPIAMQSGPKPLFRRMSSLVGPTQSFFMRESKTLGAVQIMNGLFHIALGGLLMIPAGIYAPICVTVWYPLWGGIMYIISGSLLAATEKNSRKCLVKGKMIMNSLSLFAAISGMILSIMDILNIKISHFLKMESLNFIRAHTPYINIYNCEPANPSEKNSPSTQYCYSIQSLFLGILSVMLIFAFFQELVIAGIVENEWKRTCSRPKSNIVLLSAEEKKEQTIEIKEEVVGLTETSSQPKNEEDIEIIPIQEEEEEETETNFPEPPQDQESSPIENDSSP
Sequence of C1q (human) (P02745 23-245 limits assumed, chain 1 of 3): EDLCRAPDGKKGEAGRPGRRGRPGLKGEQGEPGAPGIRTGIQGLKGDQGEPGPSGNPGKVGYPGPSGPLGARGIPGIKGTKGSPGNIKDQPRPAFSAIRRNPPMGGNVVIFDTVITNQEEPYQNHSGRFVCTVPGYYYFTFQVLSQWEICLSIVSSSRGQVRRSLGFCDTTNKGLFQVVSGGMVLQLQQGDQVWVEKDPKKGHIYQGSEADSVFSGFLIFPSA
Sequence of C1q (human) (P02746 28-253 limits assumed, chain 2 of 3, further chain): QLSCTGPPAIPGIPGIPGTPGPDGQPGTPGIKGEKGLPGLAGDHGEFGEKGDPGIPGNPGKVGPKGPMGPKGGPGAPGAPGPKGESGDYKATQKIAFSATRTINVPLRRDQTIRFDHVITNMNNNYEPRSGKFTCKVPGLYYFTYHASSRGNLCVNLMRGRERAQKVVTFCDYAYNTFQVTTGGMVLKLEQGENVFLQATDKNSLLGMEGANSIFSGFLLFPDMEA
Sequence of C1q (human) (P02747 29-245 limits assumed, chain 3 of 3, further chain): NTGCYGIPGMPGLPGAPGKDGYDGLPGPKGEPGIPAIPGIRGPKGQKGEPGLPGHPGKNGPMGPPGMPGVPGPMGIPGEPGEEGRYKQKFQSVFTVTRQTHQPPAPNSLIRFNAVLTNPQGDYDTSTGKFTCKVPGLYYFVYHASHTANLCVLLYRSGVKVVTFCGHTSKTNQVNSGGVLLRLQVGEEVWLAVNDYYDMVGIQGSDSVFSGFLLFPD

| CDC (percent activity as compared to wild type C2B8) (% of wild type) (C1q (human) [1]) | EC50 as a percentage of the wild type (% of wild type) (CD20 antigen) | fold lower binding than wild type C2B8 (fold lower than wild type) (C1q (human) [2]) | percent decrease in binding against wild type C2B8 (C1q (human) [3]) | Substance |
| --- | --- | --- | --- | --- |
| 108 | 102 | – | – | C2B8 mutant K320A (antibody) |
| – | 103 | 60 | – | C2B8 mutant P331A (antibody) |
| 108 | 89 | – | 30 % decrease | C2B8 mutant E318A (antibody) |
| – | 112 | – | – | C2B8 mutant P329A (antibody) |

Source: patent publication US20030166868A1
